Data published in article PMC2701922.

Key:
[1] = substrate: NC(=O)c1ccc[n+]([C@@H]2O[C@H](COP(=O)(O)OP(=O)(O)OC[C@H]3O[C@@H](n4cnc5c(N)ncnc54)[C@H](O)[C@@H]3O)[C@@H](O)[C@H]2O)c1; assay: purified protein; type: biochemical, Thermotoga maritima; details: 50-1000 μM NAD+, with 6-phosphogluconate, 80°C, varied: cofactor
[2] = substrate: NC(=O)c1ccc[n+]([C@@H]2O[C@H](COP(=O)(O)OP(=O)(O)OC[C@H]3O[C@@H](n4cnc5c(N)ncnc54)[C@H](OP(=O)(O)O)[C@@H]3O)[C@@H](O)[C@H]2O)c1; assay: purified protein; type: biochemical, Thermotoga maritima; details: 2 mM 6-phosphogluconate, 50 mM Hepes pH 7.5, 5 mM Mg2+, 0.5 mM Mn2+, 80°C, varied: cofactor

B1: T. maritima 6PGDH (Thermotoga maritima MSB8) (protein)
chain: MKSHIGLIGLAVMGQNLALNIARKGYKVSVYNRTAQRTEEFVKNRVTNEEIEPHYDIESFVKSLERPRKIILMVKAGKPVDDTISQLLPHLEPGDLIIDGGNSHYMDTERRFKELSEKGILFLGMGVSGGEYGALHGPSLMPGGSREAYNLVEEILLEIAAKTEDGPCCTYVGERSAGHFVKMVHNGIEYAIMQAIAEVYHIMRDVLSLSSEEMSSIFEEWNRGELSSFLVEITYKILRKKDEETGKPMVDVILDKAEQKGTGKWTSQAALDLGIPTPSINLAVVERVISHFKDIRTRLSKLYNKRRSATQGSEEFLRDLRNSLFFAMFMAFSQGMWLIAEASKEFGYGVSLSEVLRIWKGGCIIRAKLIDTLRRYISNENAYLLENEEVMNLLKGKIDSLKNILKASIENEIPVPVLSSSYNYFMSLTEERLPANLIQAQRDFFGAHTFERVDREGVFHINWEEGEIG
notes: full length, expressed in E. coli as CBM-intein-6PGDH fusion, tag removed by intein self-cleavage; 53 kDa
- Km [1]: 380 µM
- Km [2]: 10 µM
